From publication PMC11839083 (bioRxiv, 2025)

Target: the molecule itself
Assay: cryo-EM structure

B1: C1-GS4 (Aae NtrC1 residues 121–387 with GSGSLGQYL at the C-terminus) (other)
chain: LRKENELLRREKDLKEEEYVFESPKMKEILEKIKKISCAECPVLITGESGVGKEVVARLIHKLSDRSKEPFVALNVASIPRDIFEAELFGYEKGAFTGAVSSKEGFFELADGGTLFLDEIGELSLEAQAKLLRVIESGKFYRLGGRKEIEVNVRILAATNRNIKELVKEGKFREDLYYRLGVIEIEIPPLRERKEDIIPLANHFLKKFSRKYAKEVEGFTKSAQELLLSYPWYGNVRELKNVIERAVLFSEGKFIDRGELSCLVNSKGSGSLGQYL
binding result: binds
